Assays:
Type in all cases: cell-based, mouse
mature miRNA = assay: miRNA profiling arrays (Taqman Rodent MicroRNA Array A); settings: BDNF 30 min, plus Actinomycin-D
Method: Murine hippocampal cultures were preincubated for 10-20 minutes with […] Actinomycin D and either mock- or BDNF- (100 ng/mL) stimulated for 30 minutes before harvesting.
For miRNA arrays, […] of total RNA for each sample was reverse-transcribed with stem-looped Megaplex RT Primers (Applied Biosystems) in a final volume of 7.5 μL according to manufacturer's instructions: preincubation at 4° C. for 5 min; 16° C. for 2 min, 42° C. for 1 min, 50° C. for 1 sec, 40 cycles; 85° C. for 5 min. The entire cDNA RT product (7.5 μk) was subjected to RT-qPCR on an Applied Biosystems 7900HT Fast Real-Time PCR system using Taqman Rodent MicroRNA Array A. Data were compiled in SDS RQ Manager 1.2.1 and analyzed in Data Assist 2.0 (Applied Biosystems); RQ was calculated as 2^−LCtBDNF/2^LCtmock where LCt=(cycle threshold for miRNA of interest)−(cycle threshold for reference control) (Schmittgen and Livak, 2008). Thresholds and cycle threshold (Ct) values were determined using default settings and the maximum allowable Ct value was set at 35.0 inclusive. Data were normalized by arithmetic mean using MammU6 (4395470) and snoRNA202 (4380914) reference RNAs as controls. miRNA array data are reposited with the NCBI Gene Expression Omnibus (GEO). […]

[1] = tested on: Let-7 family, miR-107, miR-143; assay: Individual TaqMan RT-qPCR of mature miRNA levels; settings: BDNF vs mock, normalized to 18s rRNA
Method: For individual microRNA abundance assays (Applied Biosystems), 100 ng of total isolated RNA was prepared for reverse transcription with stem-looped primers specific for individual mature miRNAs in a final volume of 15 μL according to manufacturer's protocol; 4° C. for 5 min, 16° C. for 30 min, 42° C. for 30 min, 85° C. for 5 min. and subjected to TaqMan MicroRNA Assays (Applied Biosystems) for Let-7a (assay ID: 000377), Let-7b (002619), Let-7e (002406), Let-7f1 (000382), miR-107 (000443) and miR-143 ([…]). RT-qPCR was performed using a Stratagene Mx3000P machine and software with quantities derived by standard-curve quantitation method. The abundance of non-coding 18s rRNA in each sample was used as an internal control to normalize all miRNA species.

miR-17 = assay: Northern blot of control miRNA miR-17; settings: BDNF-treated (30 min) neurons
Method: Northern blots were carried out as described (Hwang et al., 2007), using the following LNA probes from Exiqon: Let-7a (5′ […] 3′; SEQ ID NO: 1), pre-Let-7a (5′ GTGGGTGTGACCCTA 3′; SEQ ID NO: 2), miR-17 (5′ […] 3′; SEQ ID NO: 3) and quantified by phosphoimaging.

[2] = tested on: Let-7 miRNA binding sites; assay: Let-7 luciferase reporter assay; settings: BDNF 4 hr, transcription blockade; control reporters unchanged
Source text: Let-7 luciferase reporters (gift of G. Hannon) harbor a wildtype or a mutant Let-7 miRNA binding site. The Let-7 miRNA binding sites are derived from a short 3′UTR segment of C. elegans Lin41 mRNA containing two adjacent proven Let-7 miRNA biding sites and are cloned into 3′UTR of firefly luciferase in a pcDNA backbone. Mutations in seed regions of both Let-7 binding sites were made for a negative control reporter, which was documented not regulated by endogenous Let-7 miRNAs. Co-transfection of the pCSK-lacZ vector, which constitutively expresses β-galactosidase and is not regulated by shRNA, served to normalize transfection efficiency and extract recovery for each sample in all reporter assays. The DNA amounts used for each well (24 well plate) were 15 ng of any luciferase reporter, 85 ng of β-gal (CSK-LacZ), and/or 75-300 ng of CXCR4 shRNA. Each reporter experiment included extracts from cells transfected with pcDNA3.1 alone as a reference control. […] Cell lysates were collected in 1×lysis buffer (reporter lysis buffer, Promega), and luciferase (Promega) and chemiluminescent β-gal (Roche) reporter assays carried out according to manufacturer instructions using a plate-reading luminometer (Perkin Elmer). […] When required, fold change was calculated by dividing normalized stimulated samples by normalized unstimulated samples.

KCC2 mRNA = assay: RT-qPCR of mRNA abundance; settings: control neurons, BDNF 100 ng/mL, 2 hours
Method: For analysis of mRNA abundance: 1 μg of RNA was immediately reverse-transcribed into cDNA with a taqman reverse transcripton kit (Applied Biosystems) and a mixture of random decamer and oligo(dT) primers in a final volume of 30 μL and subjected to TaqMan Gene Expression Assays (Applied Biosystems) for GluR1 (assay ID: Mm00433753_m1), CaMKIIu (Mm00437967_m1), Homer2 (Mm01314936_m1), KCC2 (Mm00803929_m1), Kv1.1 (Mm00439977_s1), GW182 (Mm00523487_m1), GAPDH (Mm99999915_g1), and β-tubulin-III (Mm00727586_s1). RT-qPCR was performed using a Stratagene Mx3000P machine and software in 20 μL reactions on a 96-well optical plate at 95° C. for 5 min, followed by 40 cycles of 95° C. for 30 sec, 55° C. for 1 min and 72° C. for 30 sec. The threshold and threshold cycle (Ct) values were determined using default settings. Standard curves were constructed and used for quantitation of target transcript abundance. In this method, 1:5 dilution series of an independent Standard sample are amplified to generate a curve that relates the initial quantity of the specific target in the Standard samples to the Ct. The standard curve is then used to derive by interpolation the initial sample template quantities based on their Ct values. All derived quantities were further normalized to neuron-specific β-tubulin III, whose translational status is unchanged by BDNF (Schratt et al., 2004). […]

- luciferase reporter containing Let-7 binding sites [2]: significantly induced
B1: BDNF: brain-derived neurotrophic factor, a neurotrophin used to stimulate hippocampal neurons (protein, UniProt P23560 19-247, looked up)
Neurotrophic factor BDNF …: APMKEANIRGQGGLAYPGVRTHGTLESVNGPKAGSRGLTSLADTFEHVIEELLDEDQKVRPNEENNKDADLYTSRVMLSSQVPLEPPLLFLLEEYKNYLDAANMSMRVRRHSDPARRGELSVCDSISEWVTAADKKTAVDMSGGTVTVLEKVPVSKGQLKQYFYETKCNPMGYTKEGCRGIDKRHWNSQCRTTQSYVRALTMDSKKRIGWRFIRIDTSCVCTLTIKRGR
- detectable miRNAs with significantly altered levels decreased to <50% (mature miRNA): 10.6%
- detectable miRNAs with significantly altered levels increased more than 2-fold (mature miRNA): 89.4%
- abundance of Let-7 family members, miR-107 and miR-143 [1]: significant and reproducible BDNF-induced decreases in abundance
- mature miR-17 level (miR-17): modestly increased
- KCC2 mRNA levels (KCC2 mRNA): reduced mRNA levels
